The values below come from US20260297183 (published 2026).

First the molecules themselves.
B1: H3_W99H_VL-par (antibody, V domains shown)
VH: QVQLVESGGGVVQPGRSLRLSCAASGFTFSDYGMHWVRQAPGKGLEWVAYISSGGTTIYYADTVKGRFTISRDNSKNTLYLQMNSLRAEDTAVYYCARHTNLYAMDYWGQGTTVTVSS
VL: DIVLTQSPDSLAVSLGERATINCRASKSVSTSGYSYMHWYQQKPGQPPKFLIYLASNLESGVPDRFSGSGSGTDFTLTISSLQAEDVAVYYCQHSREVPYTFGGGTKVEIKR
B2: H3_W99H_L2 (antibody, V domains shown)
VH: B1 VH
VL: B1 VL with L58K
B3: H3_W99H_L1 (51B12_W99H_L1) (antibody, V domains shown)
VH: B1 VH
VL: B1 VL with S32Q
B4: 51B12 parent (51B12_VH_VL-par) (antibody, V domains shown)
VH: B1 VH with H99W
VL: B1 VL

Where a chain is given by its changes, count along the chain named.

The first test concerns the target T1, huZIP12-ECD-GST (human, UniProt Q504Y0). The test is described as follows: SPR. (SPR reads the build-up and loss of mass on a sensor chip optically.)
Molecule B1 gave a Kd of roughly 0.5 nM.
Same read-out and setting: under B2 stands roughly 0.5 nM.

In the next test the target is T1, huZIP12-ECD-GST. The test is described as follows: SPR, extended dissociation re-test.
Consider B1, for which the Kd was roughly 0.3 nM.
On the same count and under the same terms, the same measure for B3: roughly 0.3 nM; for B4: 1.1 nM.
Same read-out and setting: the same measure for B2: roughly 0.3 nM.

As usually defined, the Kd is the concentration at which binding is half-saturated. Low readings indicate higher affinity, high ones lower affinity.
